In PMC8791620 (Science Advances, 2022):

T1: Trs120 (3xFLAG-tagged, subunit of TRAPPII) (S. cerevisiae, UniProt Q04183 1-1289)
T1 sequence: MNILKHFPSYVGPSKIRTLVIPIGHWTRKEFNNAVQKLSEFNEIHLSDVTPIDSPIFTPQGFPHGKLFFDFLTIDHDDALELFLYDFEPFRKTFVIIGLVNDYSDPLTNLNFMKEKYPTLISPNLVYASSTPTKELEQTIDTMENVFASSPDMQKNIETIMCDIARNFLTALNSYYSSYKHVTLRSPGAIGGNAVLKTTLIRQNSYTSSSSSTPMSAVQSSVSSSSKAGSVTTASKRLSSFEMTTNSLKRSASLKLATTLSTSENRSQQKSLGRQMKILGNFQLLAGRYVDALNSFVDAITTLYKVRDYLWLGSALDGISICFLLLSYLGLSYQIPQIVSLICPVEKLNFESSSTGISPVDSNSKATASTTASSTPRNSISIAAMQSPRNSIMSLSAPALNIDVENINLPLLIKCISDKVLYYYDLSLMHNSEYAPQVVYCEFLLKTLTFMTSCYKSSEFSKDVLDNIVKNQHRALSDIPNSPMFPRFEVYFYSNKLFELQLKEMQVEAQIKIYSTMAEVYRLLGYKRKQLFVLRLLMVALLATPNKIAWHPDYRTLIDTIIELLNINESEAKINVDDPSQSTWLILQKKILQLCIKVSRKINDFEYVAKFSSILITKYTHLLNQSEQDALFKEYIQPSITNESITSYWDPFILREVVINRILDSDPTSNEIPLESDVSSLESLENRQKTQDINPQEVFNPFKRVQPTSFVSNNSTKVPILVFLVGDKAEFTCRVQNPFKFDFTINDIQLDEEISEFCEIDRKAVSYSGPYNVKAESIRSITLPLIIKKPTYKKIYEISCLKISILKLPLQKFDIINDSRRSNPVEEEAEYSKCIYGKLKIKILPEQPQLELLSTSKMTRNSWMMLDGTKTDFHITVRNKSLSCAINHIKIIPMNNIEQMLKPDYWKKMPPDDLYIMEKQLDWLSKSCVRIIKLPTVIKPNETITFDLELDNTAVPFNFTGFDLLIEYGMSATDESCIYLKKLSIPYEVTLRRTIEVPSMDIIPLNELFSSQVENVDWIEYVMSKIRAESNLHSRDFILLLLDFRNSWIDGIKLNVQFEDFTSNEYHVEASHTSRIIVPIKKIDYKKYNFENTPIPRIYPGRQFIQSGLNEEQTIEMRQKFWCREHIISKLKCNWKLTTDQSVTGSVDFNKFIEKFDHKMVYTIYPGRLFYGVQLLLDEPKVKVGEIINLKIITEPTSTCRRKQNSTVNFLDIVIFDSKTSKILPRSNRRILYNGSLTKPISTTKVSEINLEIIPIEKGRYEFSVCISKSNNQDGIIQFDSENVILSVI

T2: Trs33 (subunit of core TRAPP/TRAPPI in TRAPPII) (S. cerevisiae, UniProt Q99394 1-268)
T2 sequence (looked up): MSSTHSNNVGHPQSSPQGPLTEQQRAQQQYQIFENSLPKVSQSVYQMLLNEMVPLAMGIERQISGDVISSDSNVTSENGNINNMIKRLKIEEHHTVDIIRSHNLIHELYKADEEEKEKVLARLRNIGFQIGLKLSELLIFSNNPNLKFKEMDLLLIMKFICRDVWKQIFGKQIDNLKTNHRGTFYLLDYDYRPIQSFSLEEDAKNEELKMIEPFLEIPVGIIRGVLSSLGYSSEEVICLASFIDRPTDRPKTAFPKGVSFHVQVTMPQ

T3: Trs31 (subunit of core TRAPP/TRAPPI in TRAPPII) (S. cerevisiae, UniProt Q03337 1-283)
T3 sequence (looked up): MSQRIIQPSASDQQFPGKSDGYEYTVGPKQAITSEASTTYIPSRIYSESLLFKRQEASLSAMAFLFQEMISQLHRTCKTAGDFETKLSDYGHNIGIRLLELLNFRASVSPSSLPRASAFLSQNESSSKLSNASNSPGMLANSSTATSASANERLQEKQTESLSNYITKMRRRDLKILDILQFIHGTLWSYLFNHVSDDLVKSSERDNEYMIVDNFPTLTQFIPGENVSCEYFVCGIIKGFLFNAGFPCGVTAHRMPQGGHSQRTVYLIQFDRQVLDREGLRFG

T4: Trs23 (subunit of core TRAPP/TRAPPI in TRAPPII) (S. cerevisiae, UniProt Q03784 1-219)
T4 sequence (looked up): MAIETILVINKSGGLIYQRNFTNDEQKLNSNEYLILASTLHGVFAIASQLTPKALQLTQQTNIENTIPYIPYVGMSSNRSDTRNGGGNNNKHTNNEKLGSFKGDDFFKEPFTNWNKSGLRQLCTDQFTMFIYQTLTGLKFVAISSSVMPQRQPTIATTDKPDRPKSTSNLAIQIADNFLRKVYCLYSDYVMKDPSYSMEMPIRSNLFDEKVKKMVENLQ

B1: Trs130 (subunit of TRAPPII) (natural protein, S. cerevisiae, UniProt Q03660 1-1102, looked up)
chain: MDKEIYCGSVPVSYFDPFDLFESLRPEFQQILPLDNIHWKAFDGTVRTVNRLPIELIPEGRGEADKSNDEQPFIRFLIVNCISIDQYRAKVRPLVRQWLPNLESVSSSTGEKMIYKPIILLYANSEVVDSNLFKSVSLMEKFGKDFPHVQTLEVRSVYRSPKERQEFWNQFSQKIKASVLSIFQKRLTHLQHSLANLQKGNNFEEQLLTREKLYELYVVFNILEDASLELQKIKKEILRRNMNMPDGKLQVPFESSSKSDESLGSIIIEGTLDKFQLHKYFFIRRLRLLKLEDQTLTAFVGAFQLIKNFIESISIEYRKSVRLLEFKHYFITSMLSYFEFENVSNPLLCEIKAELLMLKRDNWVQGVMATSGYRLMDKNYPNSDVKYKFDLLKETFVDETVFQENFLTLTKEILSLFNKCEGKRQRIVDILSIEIGLLYYQGKKYEEAVSLFLSCYEYYTQTNWNSIGLKILQVFIDSLSHCPKLDVLQIDGESVSASAVLTNAFLNILKLCKDNDSKEIWWKKFMDLQMKNNIHLMYPLDGLFEVTLNSKVHLARANVSAIEVNLKSYGFPEDISTKTMRLSLKNMGGDVIVFGASDFLLKKGENKLILECRDIMYGEFSLLSFEIIVEGITFVKEFPENQDEFIVVPEIYCKESTKVLVKQAHNLNLGEYALELKSVQSDALESLQVEVEVQKNIGNMKNLPVSFSMDEIQARKRYNTPFENVRLEYYLLDQITAFDLIIKTSFTKKNDQGTFGETKKVRIQCYLQLSVSVEDIFKKDIFFFKFLLNSSVREEPVILYSSELSAPDTRNDYNIRGDYIATTPALITFDGNESFINCYEITANNNFDSKDIFNLKVRYNTLKEQLDCFITDAVLIEGDVEWFILFEKWKTFWELEILKKLKYDYDAFKENRIIRLLKTSIDLNKTKSKIRNLCIEKAVLDKILICLNKVSRGIAVCNTDMDEYVRNLVPKQLTVPVQLPGFEQFFHVQFEQMETSHDALHDTIATIGNSLSYTVIVENLSGQWGQDVIDDGGYIFEILSSNEWLIHGQKRCAIKEKRKEFEVHLIPLKKGYLNFPRVEITNINGKSCRVDHSNAFESILIF

What was measured:
Experiment in all cases: cryo-EM structure
[1] = target: T1, Trs120 (3xFLAG-tagged, subunit of …)
[2] = target: B1
[3] = target: T2, Trs33 (subunit of core TRAPP/TRAPPI in …)
[4] = target: T3, Trs31 (subunit of core TRAPP/TRAPPI in …)
[5] = target: T4, Trs23 (subunit of core TRAPP/TRAPPI in …)

| binding result [1] | binding result [2] | binding result [3] | binding result [4] | binding result [5] | Binder |
| --- | --- | --- | --- | --- | --- |
| binds | binds |  |  |  | Trs65 (subunit of TRAPPII) (natural protein, S. cerevisiae, UniProt P32893 1-560, looked up) MECFVPLRCDLDGSNIEQLRQSHLSRKFIIFDEQLNLWLWFQGNSQENKRFVLQNMIILINEAQVTRTSTIDDYFTQVENNENLWRLKNDCCSKILFKSNVVMNNGYNNQIKFVFEYKSVDANFNNQDSLQDPQAKYTLDKYSSEEILPSFEPVYSWSSAATKSSKNTNNHLEKNNRATHRVSSKNSEVHEADVSRNPNTFTLKLQYPIFSLLNMRLRNISLKSEHCILSSLDFQTSKASEQLTKKFIYPQEHNSFLKLNFQEISYKLIDGTSQIELDPICPLKVPLTAFSYDSISATFKLVLLPKSTQPHRVKITLAYELELHPNLKLPVRTSWETEVTLKRSMPISSTSSQYSSNNNNTNHSASFNGAANNVNSGGLANLRLGGVSSSRFSLGAASTTSLVNSKLSNVKFKFINSNIKVIKGEKFTMRLQIINSSSSPLDLVVYYNNTINPIPSANNVRNSNGINNCGMNNGTIPNSPLTLENQYQLHNKYRKIAEGIILLSNDYKIPVVPPRETYFADLRFIGIMSGYYGTLSGLKVLDLNTNELIEVGNGASVLIQ |
| binds |  |  |  |  | B1 |
|  | binds | binds |  |  | Tca17 (subunit of TRAPPII) (natural protein, S. cerevisiae, UniProt P32613 1-152, looked up) MSLRPCFVSLIDESDKPILIYVPNEAENEMNDVLKYNVLSNISLDYFESALVEWHSLDSKPLLKSIFQLEGVSVFAMLIKQTGLKIVIGFEQKSLSGADDEFEAINQIFETVRKIYIRVKCNPLLVSGDEKSIIKSLERKFDELFISTEVEL |
|  |  | binds | binds | binds | Bet3 (subunit of core TRAPP/TRAPPI in TRAPPII) (natural protein, S. cerevisiae, UniProt P36149 1-193, looked up) MVSTTQSRSLKAMGEEIWKNKTEKINTELFTLTYGSIVAQLCQDYERDFNKVNDHLYSMGYNIGCRLIEDFLARTALPRCENLVKTSEVLSKCAFKIFLNITPNITNWSHNKDTFSLILDENPLADFVELPMDAMKSLWYSNILCGVLKGSLEMVQLDCDVWFVSDILRGDSQTEIKVKLNRILKDEIPIGED |
| binds |  |  | binds |  | Trs20 (subunit of core TRAPP/TRAPPI in TRAPPII) (natural protein, S. cerevisiae, UniProt P38334 1-175, looked up) MPQYFAIIGKKDNPVYEIEFTNAENPQGFPQDLKELNPFILHASLDIVEDLQWQINPTSQLNGNGGNGSNGGGGFLRSRAVNNTDNCYLGKVDHFYGLAITAYISYSGMKFVMIHGNSANSSVVIDDNNMRSFYQEVHELYVKTLMNPFYKITDPIRSPAFDSRVRTLARKHLSK |
